According to paper PMC11597407 (2024):
Ends that are not written are not given here.

T1: talin1 F2F3 domains
T1 chain: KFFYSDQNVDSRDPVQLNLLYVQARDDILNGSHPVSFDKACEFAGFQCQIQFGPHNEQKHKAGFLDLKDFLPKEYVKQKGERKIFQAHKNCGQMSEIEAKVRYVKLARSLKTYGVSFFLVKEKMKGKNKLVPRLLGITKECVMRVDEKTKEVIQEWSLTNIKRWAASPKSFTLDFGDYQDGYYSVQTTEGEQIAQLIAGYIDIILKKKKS

T2: talin2 F2F3 domains
T2 chain: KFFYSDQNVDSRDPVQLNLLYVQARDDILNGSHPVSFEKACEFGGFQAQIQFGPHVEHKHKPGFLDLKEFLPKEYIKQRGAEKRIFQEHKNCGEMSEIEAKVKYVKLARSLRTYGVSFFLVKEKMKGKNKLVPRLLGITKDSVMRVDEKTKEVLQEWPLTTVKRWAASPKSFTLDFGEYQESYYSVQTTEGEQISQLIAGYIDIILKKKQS


Key:
talin1 F2F3 domains = target: T1, talin1 F2F3 domains; experiment: FP
talin2 F2F3 domains = target: T2, talin2 F2F3 domains; experiment: FP

Binder	Kd (talin1 F2F3 domains)	Kd (talin2 F2F3 domains)
KLLMIIHDRREFAKFEKEKMNAKWDTGENPIYKSAVTTVVNPKYEGK (not fully specified (N-terminus)) [β1A, listing 1 of 2 here]	95.1 µM	
KLLMIIHDRREFAKFEKEKMNAKWDTGENPIYKSAVTTVVNPKYEGK (not fully specified (N-terminus)) [β1A, listing 2 of 2 here]		35.3 µM
